Data on three molecules can be found in paper PMC7503845.

In assay [1] the target is full length recombinant human active CK1 epsilon (CK1ε) (human) (UniProt P49674).
Assay [2] has the same target. The source holds these as a separate data set.
Assay [3] has the same target. This is another data set of the same source.
Assay [4] shares this target. This is another data set of the same source.

Chain of UniProt P49674 (P49674 whole entry): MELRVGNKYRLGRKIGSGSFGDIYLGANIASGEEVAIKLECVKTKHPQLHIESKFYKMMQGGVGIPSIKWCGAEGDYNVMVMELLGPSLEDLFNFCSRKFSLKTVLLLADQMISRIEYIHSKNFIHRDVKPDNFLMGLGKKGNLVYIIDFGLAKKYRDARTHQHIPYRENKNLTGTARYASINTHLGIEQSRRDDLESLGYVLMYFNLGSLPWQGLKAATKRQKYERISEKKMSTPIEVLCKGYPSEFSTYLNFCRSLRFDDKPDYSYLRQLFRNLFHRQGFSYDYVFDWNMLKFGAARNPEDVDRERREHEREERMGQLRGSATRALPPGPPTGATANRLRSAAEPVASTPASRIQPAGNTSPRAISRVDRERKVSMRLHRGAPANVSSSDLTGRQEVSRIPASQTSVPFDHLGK

Consider “dephosphorylated native casein mixture (Casein)”, for which, in assay [1], the Km^Casein of the kinase reaction at fixed ATP of 7.5, 15, 30 and 60 μM (4.6, 3.9, 4.8 and 4.0 μM) came to 4.8 µM; the kcat / Km^Casein of the kinase reaction at fixed ATP of 7.5, 15, 30 and 60 μM (2.5, 4.1, 6.3 and 10.8 min^-1 μM^-1) was determined as 180000 M⁻¹ s⁻¹.
Take “recombinant human DDX3X wild-type (WT) (from UniProt O00571 1-662) (enzyme)”: in assay [2], the Km^DDX3X of the kinase reaction at fixed ATP of 15, 30, 60 and 120 μM (0.6, 0.5, 0.7 and 0.7 μM) is 0.7 µM; the kcat / Km^DDX3X of the kinase reaction at fixed ATP of 15, 30, 60 and 120 μM (5.5, 8.4, 11.9 and 18.9 min^-1 μM^-1) was 315000 M⁻¹ s⁻¹. The Km of CK1ε for DDX3X in the kinase reaction (33P incorporation; DDX3X 0.06-1 μM, ATP fixed at 30 μM, 25 ng CK1ε, 15 min) in assay [3] amounted to 0.2 µM.

B1: full length recombinant human disheveled 2 (Dvl2) (natural protein)
chain: MAGSSTGGGGVGETKVIYHLDEEETPYLVKIPVPAERITLGDFKSVLQRPAGAKYFFKSMDQDFGVVKEEISDDNARLPCFNGRVVSWLVSSDNPQPEMAPPVHEPRAELAPPAPPLPPLPPERTSGIGDSRPPSFHPNVSSSHENLEPETETESVVSLRRERPRRRDSSEHGAGGHRTGGPSRLERHLAGYESSSTLMTSELESTSLGDSDEEDTMSRFSSSTEQSSASRLLKRHRRRRKQRPPRLERTSSFSSVTDSTMSLNIITVTLNMEKYNFLGISIVGQSNERGDGGIYIGSIMKGGAVAADGRIEPGDMLLQVNDMNFENMSNDDAVRVLRDIVHKPGPIVLTVAKCWDPSPQAYFTLPRNEPIQPIDPAAWVSHSAALTGTFPAYPGSSSMSTITSGSSLPDGCEGRGLSVHTDMASVTKAMAAPESGLEVRDRMWLKITIPNAFLGSDVVDWLYHHVEGFPERREARKYASGLLKAGLIRHTVNKITFSEQCYYVFGDLSGGCESYLVNLSLNDNDGSSGASDQDTLAPLPGATPWPLLPTFSYQYPAPHPYSPQPPPYHELSSYTYGGGSASSQHSEGSRSSGSTRSDGGAGRTGRPEERAPESKSGSGSESEPSSRGGSLRRGGEASGTSDGGPPPSRGSTGGAPNLRAHPGLHPYGPPPGMALPYNPMMVVMMPPPPPPVPPAVQPPGAPPVRDLGSVPPELTASRQSFHMAMGNPSEFFVDVM
B1: in assay [4], the Km^Dvl2 of the kinase reaction at fixed ATP of 7.5, 30, 60 and 120 μM (0.5, 1.1, 0.9 and 0.4 μM) came to 1.1 µM; the kcat / Km^Dvl2 of the kinase reaction at fixed ATP of 7.5, 30, 60 and 120 μM (76.4, 98.8, 159.3 and 261.7 min^-1 μM^-1) is 4.36e+06 M⁻¹ s⁻¹.
